{
  "source": "patent US20200184403A1",
  "about": "(DOW AGROSCIENCES, published 2020)",
  "proteins": {"B1": {"name": "DIG-177 (full length wild type Cry6Aa) (other)", "chain": "MIIDSKTTLPRHSLIHTIKLNSNKKYGPGDMTNGNQFIISKQEWATIGAYIQTGLGLPVNEQQLRTHVNLSQDISIPSDFSQLYDVYCSDKTSAEWWNKNLYPLIIKSANDIASYGFKVAGDPSIKKDGYFKKLQDELDNIVDNNSDDDAIAKAIKDFKARCGILIKEAKQYEEAAKNIVTSLDQFLHGDQKKLEGVINIQKRLKEVQTALNQAHGESSPAHKELLEKVKNLKTTLERTIKAEQDLEKKVEYSFLLGPLLGFVVYEILENTAVQHIKNQIDEIKKQLDSAQHDLDRDVKIIGMLNSINTDIDNLYSQGQEAIKVFQKLQGIWATIGAQIENLRTTSLQEVQDSDDADEIQIELEDASDAWLVVAQEARDFTLNAYSTNSRQNLPINVISDSCNCSTTNMTSNQYSNPTTNMTSNQYMISHEYTSLPNNFMLSRNSNLEYKCPENNFMIYWYNNSDWYNNSDWYNN", "notes": "Recombinant, produced in Pseudomonas fluorescens (standard) or in maize cells (Western blots)"}},
  "molecular_target": "the molecule itself",
  "experiment": "SDS-PAGE of undigested full-length DIG-177 (self-association)",
  "protocol": "SDS-PAGE was run following the protocol NuPAGE Bis-Tris gels from Invitrogen Life technologies (Protocol Pub. No. MAN0007894 Rev. A.0, Ref.2). Briefly, samples were mixed with denaturing sample buffer (Invitrogen) plus 5 mM DTT (for reducing PAGE) or minus DTT (for non reducing PAGE) and heated at 95° C. for 5 minutes. The samples were loaded onto Invitrogen Bis/Tris gel. The gel was run with MOPS or MES running buffer under 200 V for ˜43 minutes. The gel was stained with Coomassie blue staining solution (Bio-Rad) for 30 minutes and de-stained with de-staining solution (7% Acetic acid and 5% Methanol in water) until the background cleared.",
  "data": [
    {"protein": "B1", "values": [
      {"measurement": "binding result", "value": "binds"}
    ]}
  ]
}
